Laboratory results published in the supplement of paper PMC10126150.
± gives the standard deviation of the averaged measurements.

Tested on: ATP
Experiment: switch fluorescence ratio, 500 uM ATP over buffer (Cy3 cluster intensity, sum of 5 cycles each) (fold (ratio)); higher = stronger signal-on switching upon ATP binding; sequences stand for … in TCGTCGGCAGCGTCAGATGTGTATAAGAGACAGTTTTTTTTTTTTTTTTTTTTTTTTT…TC
Settings: aptamer strand: ATP DNA aptamer (quencher-CACCTGGGGGAGTATTGCGGAGGAAGG + anchor), 100 nM annealed; ATP concentration: 500 uM
Method in brief: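 Clusters carrying Cy3-labelled switching strands on a modified Illumina MiSeq flow-cell were annealed to 100 nM quencher-labelled ATP aptamer and imaged in selection buffer. They were imaged again after 15 min with 500 uM ATP at 22 °C, over five buffer/ATP cycles with NaOH stripping and re-annealing in between. For each cluster, the fluorescence ratio is the summed Cy3 intensity of the target cycles divided by that of the buffer cycles, averaged per switch-domain sequence. Clusters outside 100-1000 RFU were left out.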
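Note: ATP exposure 15 min at 22 °C before imaging.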

| Sequence | switch fluorescence ratio |
| --- | --- |
| ACTTGCCTGT | 1.005 ± 0.01 |
| GGATCCACGG | 1.012 ± 0.005 |
| GGGGCTGGGA | 0.986 ± 0.027 |
| TGACGGGGGT | 0.989 ± 0.028 |
| ATGCGTCGCG | 0.986 ± 0.025 |
| GTATTAGGGT | 1 ± 0.041 |
| GGCTAATTTT | 1.02 ± 0.011 |
| CAGCCCTAGG | 1.09 ± 0.053 |
| CCTTAACGGC | 1.06 ± 0.015 |
| TACTTACTAA | 1.19 ± 0.036 |
| GATTTTTAAA | 1.02 ± 0.035 |
| AGTTTCTTAG | 1.015 ± 0.0019 |
| TGGTTGCTCT | 0.9891 ± 0.008 |
| ACCGTCTCAG | 1.05 ± 0.026 |
| CGGGAGGGGG | 1.06 ± 0.07 |
| TCAGTTTAGC | 1.01 ± 0.016 |
| TGTTGGCCGG | 0.991 ± 0.026 |
| GCCTTTGGCT | 0.996 ± 0.049 |
| TTTCCTTGCT | 1.49 ± 0.59 |
| TTAGAAAGTT | 1.03 ± 0.091 |
| CGCGGTGCGG | 1.005 ± 0.0076 |
| CCATGGGAAA | 0.961 ± 0.03 |

| Sequence | switch fluorescence ratio |
| --- | --- |
| AGGGGAGAAC | 0.9758 ± 0.0086 |
| TAATTCATCG | 0.97196 ± 0.00069 |
| CAGAAAAGCA | 1.03 ± 0.017 |
| GGGGGGGGC | 0.989 ± 0.061 |
| AAATGTTGAG | 0.975 ± 0.045 |
| AAATGCTATG | 1.01 ± 0.031 |
| TCTTTTGGGC | 1.02 ± 0.076 |
| GATGGGCACT | 1.05 ± 0.029 |
| CTTTAATCC | 1.27 ± 0.48 |
| ACCGCGCGAC | 2.49 ± 0.053 |
| AGGTTGGGGC | 1.01 ± 0.052 |
| TGGTAATTAG | 0.979 ± 0.014 |
| GTTCTTGATG | 0.967 ± 0.015 |
| TTGGGCCGGT | 1 ± 0.037 |
| GTGGGGTTGG | 0.981 ± 0.021 |
| TTTTTTGGGG | 0.984 ± 0.023 |
| AAAGTTACTG | 1.03 ± 0.077 |
| TCTTAGTTGT | 0.988 ± 0.024 |
| TTGGGACCGT | 1 ± 0.0015 |
| CGGCTGGGCT | 0.988 ± 0.024 |
| GAACTCGGCG | 1.02 ± 0.031 |
| TTCTGTATGT | 0.97 ± 0.029 |

| Sequence | switch fluorescence ratio |
| --- | --- |
| TAAGGGAGGG | 1.05 ± 0.029 |
| AAATCAATGT | 1.02 ± 0.035 |
| GAGCTGCGGG | 1.002 ± 0.0021 |
| ATGAGATTGC | 0.9899 ± 0.0076 |
| GTTATTGGTA | 1.01 ± 0.018 |
| TTGGTGCCTT | 1.07 ± 0.033 |
| CTCTTTTGGT | 0.975 ± 0.02 |
| GTCGTGTCTG | 1.004 ± 0.0065 |
| CGTTGTTGTT | 0.989 ± 0.045 |
| GGTATTTATC | 0.986 ± 0.038 |
| GCGGATTAGG | 1.03 ± 0.0072 |
| TGTGGGGGAG | 1.03 ± 0.035 |
| TAGGTTCTAA | 1.06 ± 0.079 |
| CGTGTGGTGT | 1.03 ± 0.04 |
| ATTGAAGCTT | 1.009 ± 0.0089 |
| TAAGGGGCGT | 1.03 ± 0.035 |
| GAAGGGCATT | 0.9963 ± 0.0015 |
| GCAGCGGACT | 1.29 ± 0.042 |
| TTCTGAACGT | 1 ± 0.015 |
| TTATAGTTGA | 0.9944 ± 0.0015 |
| GGCGGGATTG | 0.959 ± 0.041 |
| TAGATTGTGT | 0.998 ± 0.027 |

| Sequence | switch fluorescence ratio |
| --- | --- |
| CGGGGCTATG | 0.997 ± 0.0053 |
| GATAATGAAC | 1.02 ± 0.02 |
| TAGGGCGGGA | 0.946 ± 0.052 |
| ATGGGGTGGC | 0.9977 ± 0.0017 |
| CTGGGCCGGT | 1.02 ± 0.063 |
| TTTGACAGCC | 1.06 ± 0.042 |
| CGGAACCGGG | 1.03 ± 0.024 |
| GTCATCATGG | 0.986 ± 0.044 |
| TTTGTGCAGG | 1.04 ± 0.046 |
| CGAGGCGCG | 0.9537 ± 0.008 |
| TCTATTATAC | 1.23 ± 0.13 |
| AAAAATGGGA | 0.962 ± 0.044 |
| TGGTTGGCGG | 1.03 ± 0.062 |
| CTTTTCGGGT | 0.964 ± 0.033 |
| TGAATAGGGG | 0.989 ± 0.0095 |
| GAGAGATCG | 0.982 ± 0.021 |
| AAAAGAGGGT | 1.03 ± 0.048 |
| CGATGTATAA | 1.01 ± 0.025 |
| GGGCAAGTGG | 0.959 ± 0.014 |
